Experiments:
[1] = system: GFP double loop insertion mutant at positions 157-158 and 174-175 with GGGG-LETD-GGGGG (caspase 8 sites)
[2] = system: GFP double insertion mutant K157-Q158 and D174-G175 (cathepsin L sites)
[3] = system: substitution mutants (GFP sequence substituted with FRS at various positions; fifteen fluorescent of twenty)
[4] = system: recombinant GFP-His protein (wild type GFP)
[5] = system: GFP single insertion mutant D174-G175 (GGGGFFRSGGGG inserted)
[6] = system: GFP single insertion mutant G117-D118 (GGGGFFRSGGGG inserted)
[7] = system: GFP single insertion mutant T39-Y40 (GGGGFFRSGGGG inserted)
[8] = system: GFP single insertion mutant K157-Q158 (GGGGFFRSGGGG inserted)
[9] = system: GFP single insertion mutant K102-D103 (GGGGFFRSGGGG inserted)

Sequence of cathepsin L (chain, as listed by the source): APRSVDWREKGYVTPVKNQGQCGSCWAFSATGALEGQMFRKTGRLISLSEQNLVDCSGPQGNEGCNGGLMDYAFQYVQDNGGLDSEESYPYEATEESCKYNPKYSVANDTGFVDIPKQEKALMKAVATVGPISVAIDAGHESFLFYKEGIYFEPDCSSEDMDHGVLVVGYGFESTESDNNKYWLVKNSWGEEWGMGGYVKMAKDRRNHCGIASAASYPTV

Row | Substance | Cleavage at sequence introduced [1] | Cleavage at sequence introduced [2] | specific cleavage (SDS-PAGE) [3] | GFP fluorescence and SDS-PAGE band on incubation with 400 nM cathepsin L at pH 5.5 and 4.8 [4] | Cleavage at sequence introduced [5] | Cleavage at sequence introduced [6] | Cleavage at sequence introduced [7] | Cleavage at sequence introduced [8] | Cleavage at sequence introduced [9]
1 | caspase 8 | (yes) | – | – | – | – | – | – | – | –
2 | cathepsin L | – | (yes) | fifteen mutants were fluorescent and therefore properly folded, but only one of them was specifically cleaved by cathepsin L | A time-dependent decrease in GFP fluorescence was observed (FIG. 10A), with concommitant disappearance of the GFP band on SDS-PAGE | Yes | No | Yes | Yes | Yes

— patent publication US20040042961
